Results reported in patent US20170247440A1 (Hoffmann-La Roche, published 2017).

B1: antibody 0064 (antibody, V domains shown)
VH: EVQLVESGGGLVQPGGSLRLSCAASGFTFSSYWMSWVRQAPGKGLEWVSTISDGGGTTSYADSVKGRFTISRDNSKNTLYLQMNSLRAEDTAVYSCAESGGATDYLFDYWGQGTLVTVSS
VL: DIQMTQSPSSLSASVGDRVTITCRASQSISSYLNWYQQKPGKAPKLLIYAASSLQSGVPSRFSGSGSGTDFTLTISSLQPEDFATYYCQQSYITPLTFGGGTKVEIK
notes: Human antibody from a human Ig locus transgenic rabbit; IgG
B2: antibody 0060 (antibody, V domains shown)
VH: EVQLLESGGDLVQPGGSLRLSCAASGFTFRSYAMSWVRQAPGKGLEWVSGISAGGGYIYYADSVTGRFTSSRDNYKNTLYLQMNRLRVEDTAVYYCARFYPGYNSDTYYYDGMDVWGQGTTVTVSS
VL: not shown
notes: as for B1
B3: antibody 0058 (antibody, V domains shown)
VH: EVQLVESGGGLVQPGGSLRLSCAASGFTFSSFWMTWVRQAPGKGLEWVASISAGGGITHYPDSVKDRFTVSRDNAKNSLYLQLNSLRAEDTAVYYCAESGGDIYSDFDYWGQGTLVTVSS
VL: not shown
notes: as for B1

Experiments:
[1] = target: T1, murine PDGF-BB (murine, UniProt P31240 82-190); assay: ELISA, immobilized murine PDGF-BB (Example 11)
T1 construct: also called muPDGF-BB
Procedure: (§1) The binding analysis was carried out using an enzyme-linked immunosorbent assay (ELISA)-based technology. The antigen murine PDGF-BB (Peprotech 315-18) was immobilized at a concentration of 125 ng/mL in 25 μL in PBS, 0.5% BSA and 0.05% Tween on a 384 well microtiter plate (Thermo Scientific, Cat. No. 464718). Every of the following steps was followed by a washing routine of 3 times 90 μL PBS, 0.5% BSA, 0.05 Tween with dispense and aspiration: 1) blocking step: saturating unbound surface (1 hour, 2% BSA); 2) anti-PDGF-BB antibody in increasing concentrations for 1 hour; 3) detection antibody, dilution=1:3000 (ECL anti-rabbit IgG-POD, NA9340V+ECL anti-human IgG-POD, NA933V or alternatively for murine antibodies ECL anti-mouse IgG-POD; NA 9310V). 20-30 min. after adding the substrate 3,3′,5,5′-tetramethylbenzidine (TMB, Piercenet, Cat. No. 34021) the optical density was determined at 370 nm. The EC₅₀ was calculated with a four parameter logistic model using GraphPad Prism 6.0 software.

[2] = target: T2, human PDGF-BB (human, UniProt P01127 82-190); assay: cell-based or functional assay
[3] = target: T2, human PDGF-BB; assay: ELISA, immobilized human PDGF-BB (Example 9)
Procedure: as §1, with “antigen human” for “antigen murine”, “PDGF-BB (Cell Signaling, Cat. No 8921BF)” for “PDGF-BB (Peprotech 315-18)”, “μL PBS” for “μL PBS, 0.5% BSA, 0.05 Tween”

[4] = target: T3, cynomolgus PDGF-BB (cynomolgus, UniProt A0A2K5UX81 82-190, Disulfide-linked homodimer of two identical B chains; one copy is given.); assay: SPR, IgG on immobilized cynomolgus PDGF-BB (Example 18)
T3 construct: also called cynPDGF-BB
Procedure: (§2) The binding analysis was carried out using a surface plasmon resonance spectroscopy-based technology applying a BIAcore B4000 system (GE Healthcare). The antigen cynomolgus PDGF-BB was immobilized at a concentration of 1 μg/mL in PBS, 0.1% BSA, 0.05% Tween using amine coupling chemistry on a C1 sensor chip (GE Healthcare, Cat. No. BR-1005-35). Anti-PDGF-BB antibody in increasing concentrations was applied in 10 mM HEPES pH 7.2, 150 mM NaCl. Utilizing a read out time of 180 sec. association phase and 600 sec. dissociation phase the apparent kₐ and apparent kd were calculated. The apparent KD (avidity) was calculated using the BIAcore T200 v2.0 fitting software.

[5] = target: T3, cynomolgus PDGF-BB; assay: SPR, apparent KD (avidity), IgG on immobilized cynomolgus PDGF-BB (Example 18)
Procedure: as §2

[6] = target: T2, human PDGF-BB; assay: SPR, IgG on immobilized human PDGF-BB (Example 17)
Procedure: The binding analysis was carried out using a surface plasmon resonance spectroscopy-based technology applying a BIAcore B4000 system (GE Healthcare). The antigen human PDGF-BB (Cell Signaling, Cat. No. 8921BF) was immobilized at a concentration of 1 μg/mL in PBS, 0.1% BSA, 0.05 Tween using amine coupling chemistry on a C1 sensor chip (GE Healthcare, Cat. No. BR-1005-35). Anti-PDGF-BB antibody in increasing concentrations was applied in 10 mM HEPES pH 7.2, 150 mM NaCl. Utilizing a read out time of 180 sec. association phase and 600 sec. dissociation phase the apparent kₐ and apparent kd were calculated. The apparent KD (avidity) was calculated using the BIAcore T200 v2.0 fitting software.

T2 sequence (P01127 82-190 limits assumed): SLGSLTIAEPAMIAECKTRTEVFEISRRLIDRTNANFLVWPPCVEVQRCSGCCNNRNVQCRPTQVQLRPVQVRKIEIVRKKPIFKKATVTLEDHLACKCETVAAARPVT
T3 sequence (A0A2K5UX81 entry or part of it limits assumed): as the sequence (P01127 82-190 limits assumed) above, with I7V counted along it
T1 sequence (P31240 82-190): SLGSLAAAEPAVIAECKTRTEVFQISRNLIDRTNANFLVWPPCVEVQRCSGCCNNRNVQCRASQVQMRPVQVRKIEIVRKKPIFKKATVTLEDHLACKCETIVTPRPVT

Row | Binder | EC50 [1] [µg/mL] | IC50 Proliferation 3T3 [2] [µg/mL] | EC50 [3] [µg/mL] | koff [4] [s⁻¹] | kon [4] [M⁻¹ s⁻¹] | Kd [5] [nM] | koff [6] [s⁻¹] | kon [6] [M⁻¹ s⁻¹] | IC50 Phospho-Inhibition [2] [µg/mL]
1 | B1 | 0.00268 | 0.062 | 0.016 | 4.42e-05 | 740000 | 0.0596 | 5.5e-05 | 720000 | 
2 | B2 | 0.0428 | 0.0363 | 0.0375 | < 1e-05 | 330000 | < 0.0303 | 2.9e-05 | 370000 | 0.0016
3 | B3 | 0.0332 | 0.0793 | 0.0401 | 6.53e-05 | 2.27e+06 | 0.0288 | 0.00011 | 1.8e+06 | 0.0029
